Experimental data as given in patent publication US20060188956A1, “Relaxin3-gpcr135 complexes and their production and use” (priority 2003, published 2006).

What was measured:
[1] = target: T1, GPCR135 (Homo sapiens, UniProt Q9NSD7); assay: GTPγS binding assay with GPCR135 expressing cell membranes; assay type: biochemical; parameters: primers complementary to the putative translation start and stop sites of the GPCR135 open reading frame; expressed in transfected cells; host or cells: CHO-K1 (transient, pCIneo vector); isolated cell membranes; conditions: GPCR135 expressing cell membrane
T1 sequence (Q9NSD7 1-469): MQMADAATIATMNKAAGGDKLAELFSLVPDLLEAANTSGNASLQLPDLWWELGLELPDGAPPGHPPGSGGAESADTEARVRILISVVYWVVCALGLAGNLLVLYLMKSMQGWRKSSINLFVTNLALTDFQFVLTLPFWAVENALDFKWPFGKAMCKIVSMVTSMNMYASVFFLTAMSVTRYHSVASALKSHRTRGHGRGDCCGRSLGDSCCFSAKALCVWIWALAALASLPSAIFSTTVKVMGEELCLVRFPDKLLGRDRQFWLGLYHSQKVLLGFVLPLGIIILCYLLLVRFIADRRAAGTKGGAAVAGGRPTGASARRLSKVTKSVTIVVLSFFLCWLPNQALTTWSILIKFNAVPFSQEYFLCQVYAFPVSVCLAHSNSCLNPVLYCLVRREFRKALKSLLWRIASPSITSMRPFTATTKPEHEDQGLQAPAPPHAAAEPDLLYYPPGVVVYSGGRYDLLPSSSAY
Method: Frozen rat brains (5 g) were homogenized at −30° C. in 40 ml ethanol/HCl (ethanol to 0.8M HCl ratio at 3:1). The homogenate was extracted at 4° C. for 2 hr and then centrifuged at 4° C. at 20,000 g for 30 min. The supernatant was loaded onto a 2 ml SP-Sephadex C-25 column (Amersham), washed with 1 M acetic acid and eluted with 2 M pyridine and 1 M acetic acid. The eluted fraction was loaded onto a 6 ml C-18 BondElut column, washed with 0.1% TFA and eluted with 60% acetonitrile and 0.1% TFA. The eluted peptides were lyophilized, reconstituted in water, and tested for GPCR135 ligand activity using GTPγS binding assay as described in Example 5.
The expression vector was transfected into COS-7 cells using LipofectAmine (Invitrogen). Three days after the transfection, the supernatants of the transfected cells were collected, the pH was adjusted to 3.0 and loaded onto a Sephadex C-25 cation exchange column. The column was washed with 1 M acetic acid and eluted with 2 M pyridine and 1 M acetic acid. The eluted proteins were loaded on a C-18 BondElut column, washed with 0.1% TFA, and eluted with 60% acetonitrile and 0.1% TFA. […]
GPCR135 expression vector was transfected into CHO-K1 cells using Lipofectamine (Invitrogen). […] Microscint-40 (Packard) was added to each well and the plate was counted on a top counter (TopCount NTX, Packard).

[2] = target: T1, GPCR135; assay: Intracellular cAMP accumulation assay in CHO-K1 cells; assay type: cell-based; parameters: primers complementary to the putative translation start and stop sites of the GPCR135 open reading frame; expressed in transfected cells; host or cells: CHO-K1 (transient, pCIneo vector); isolated cell membranes
Method: CHO-K1 cells stably expressing human GPCR135 (GPCR135) and un-transfected CHO-K1 cells (Control) were used for cAMP accumulation assays. Cells were treated with different stimulants as indicated. cAMP accumulated in the cells was extracted by HCl and the concentration of cAMP was measured by a ELISA kit (NEN) using ^125I-labeled cAMP and Flash plates.
CHO-K1 cells stably expressing human GPCR135 were established by transfection of GPCR135 expressing plasmid into CHO-K1 (ATCC# CCL-61) cells and culturing the transfected cells under selection of G418 (400 mg/L). The receptor expressing cells were seeded in 96-well plates at a cell density of 30,000 cells/well. Twenty-four hours later, cell culture medium was replaced with DMEM-F12 plus 2 mM IBMX (sigma). A different test compound for cAMP stimulation was added to each well. The reactions were incubated at room temperature for 20 min. Twenty micro-liters of 0.5 N HCl was added to each well to stop the reaction and extract the accumulated cAMP. The cAMP concentration was measured using a cAMP ELISA kit (NEN).

[3] = target: T1, GPCR135; assay: Ca2+ mobilization assay (FLIPR) in HEK293 cells co-expressing GPCR135 and Gqi5; assay type: cell-based; parameters: primers complementary to the putative translation start and stop sites of the GPCR135 open reading frame; expressed in transfected cells; host or cells: HEK293 (ATCC CRL-1573), transient co-transfection with Gqi5
Method: Using LipofectAmine, human embryonic kidney (HEK) 293 cells were co-transfected with a plasmid expressing GPCR135 receptor and a plasmid expressing Gqi5, a mutant G-protein that translates the activation of GPCR135 into an increased intracellular Ca^2+, or increased Ca^2+ mobilization (Conklin et al., 1993, Nature 363: 274-276). Two days after transfection, cells were detached with PBS plus 10 mM EDTA, pH 8.0. The detached cells were washed with DMEM-F12 medium (without phenol red, Invitrogen) and seeded in black poly-D lysine coated 96-well plates at a cell density of 50,000 cell/well. Calcium dye, Fluo-3 (AM) (TEFLABS, Austin, Tex.) was loaded into the cells and ligand stimulated calcium mobilization was monitored using FLIPR (Molecular Device).
HEK293 cells, untransfected (293 Control) or transfected by Gqi5 (293/Gqi5) alone or human GPCR135 (GPCR135) alone, or co-transfected by human GPCR135 and Gqi5 (GPCR135/Gqi5), were used for Ca^2+ mobilization assays under stimulation of relaxin3 as the ligand. Ligand-stimulated intracellular mobilization was monitored using FLIPR.

[4] = target: T2, LGR7 (Homo sapiens, UniProt Q9HBX9); conditions: cited from earlier work
T2 sequence (Q9HBX9 1-757): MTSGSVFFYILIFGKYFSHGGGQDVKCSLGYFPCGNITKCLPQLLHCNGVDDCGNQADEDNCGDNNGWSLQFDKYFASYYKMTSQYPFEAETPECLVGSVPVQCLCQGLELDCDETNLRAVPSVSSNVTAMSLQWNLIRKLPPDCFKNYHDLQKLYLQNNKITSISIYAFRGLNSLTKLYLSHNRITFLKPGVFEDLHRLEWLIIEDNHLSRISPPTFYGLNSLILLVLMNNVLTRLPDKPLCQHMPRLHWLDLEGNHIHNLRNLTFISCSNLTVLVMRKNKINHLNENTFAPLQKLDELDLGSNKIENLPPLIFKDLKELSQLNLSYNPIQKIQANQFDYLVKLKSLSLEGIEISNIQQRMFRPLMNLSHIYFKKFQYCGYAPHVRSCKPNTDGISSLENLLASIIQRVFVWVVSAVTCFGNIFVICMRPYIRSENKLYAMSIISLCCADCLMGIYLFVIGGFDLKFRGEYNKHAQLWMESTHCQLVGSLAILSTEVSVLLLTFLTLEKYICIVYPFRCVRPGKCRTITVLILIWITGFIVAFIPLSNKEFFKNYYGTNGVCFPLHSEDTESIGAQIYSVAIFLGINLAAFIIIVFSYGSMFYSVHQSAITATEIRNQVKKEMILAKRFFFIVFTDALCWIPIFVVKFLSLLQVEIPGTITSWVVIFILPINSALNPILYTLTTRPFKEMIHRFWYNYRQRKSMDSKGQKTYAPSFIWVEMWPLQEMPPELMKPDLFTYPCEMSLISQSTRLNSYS

[5] = target: T1, GPCR135; assay: Radioligand binding assay in transfected COS-7 cells; conditions: COS-7 cells transfected with human GPCR135; competitor 1 μM unlabeled relaxin3
Method: (§1) COS7 cells, either untransfected (NC) or transfected with pcDNA3.1 (the vector control), human GPCR135 (hGPCR135), mouse GPCR135 (mGPCR135), rat GPCR135 long form (rGPCR135L), and rat GPCR135 short form (rGPCR135s) respectively, were used for binding assays using ^125I-labeled human relaxin3 either in the present (“Competition”) or absence (“Total Binding”) of 1 µM of unlabeled human relaxin3 as the competitor.
(§2) COS-7 cells in 6-well tissue culture plates were transfected by GPCR135 expressing plasmid using LipofectAmine. Two days after transfection, cells were washed with binding buffer: DMEM plus 50 mM Hepes, pH 7.2 and 1% BSA. ^125I-label human relaxin3 was added to each well in 1 ml of binding buffer at presence or absence 1 μM of unlabeled relaxin as competitor. The binding assays were carried out at room temperature for one hour and the unbound ligand was washed away by ice-cold PBS. The bound ^125I-relaxin3 was counted in a gamma counter.

[6] = target: T3, mouse GPCR135 (Mus musculus, UniProt Q8BGE9); assay: as above; conditions: COS-7 cells transfected with mouse GPCR135; competitor 1 μM unlabeled relaxin3
T3 construct: Mouse GPCR135 coding region was PCR amplified from mouse genomic DNA; expressed in transfected cells; host or cells: COS-7 (ATCC CRL-1651), transient
T3 sequence (Q8BGE9 1-472): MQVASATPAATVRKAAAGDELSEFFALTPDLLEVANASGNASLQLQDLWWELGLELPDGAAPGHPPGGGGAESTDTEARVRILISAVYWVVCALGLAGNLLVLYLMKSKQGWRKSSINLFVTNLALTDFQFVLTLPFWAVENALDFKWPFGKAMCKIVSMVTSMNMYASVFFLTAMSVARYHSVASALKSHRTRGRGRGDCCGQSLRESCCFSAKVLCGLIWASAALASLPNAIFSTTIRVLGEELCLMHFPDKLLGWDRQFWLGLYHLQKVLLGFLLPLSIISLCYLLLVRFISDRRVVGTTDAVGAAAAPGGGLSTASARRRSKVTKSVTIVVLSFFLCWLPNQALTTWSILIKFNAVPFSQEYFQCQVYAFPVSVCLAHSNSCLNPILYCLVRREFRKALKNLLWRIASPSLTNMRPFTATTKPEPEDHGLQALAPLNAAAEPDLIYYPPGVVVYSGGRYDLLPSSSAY
Method: as §1, §2

[7] = tested on: rat GPCR135; assay: as above; conditions: COS-7 cells transfected with rat GPCR135 (long and short form); competitor 1 μM unlabeled relaxin3
Chain of rat GPCR135 (as listed by the source): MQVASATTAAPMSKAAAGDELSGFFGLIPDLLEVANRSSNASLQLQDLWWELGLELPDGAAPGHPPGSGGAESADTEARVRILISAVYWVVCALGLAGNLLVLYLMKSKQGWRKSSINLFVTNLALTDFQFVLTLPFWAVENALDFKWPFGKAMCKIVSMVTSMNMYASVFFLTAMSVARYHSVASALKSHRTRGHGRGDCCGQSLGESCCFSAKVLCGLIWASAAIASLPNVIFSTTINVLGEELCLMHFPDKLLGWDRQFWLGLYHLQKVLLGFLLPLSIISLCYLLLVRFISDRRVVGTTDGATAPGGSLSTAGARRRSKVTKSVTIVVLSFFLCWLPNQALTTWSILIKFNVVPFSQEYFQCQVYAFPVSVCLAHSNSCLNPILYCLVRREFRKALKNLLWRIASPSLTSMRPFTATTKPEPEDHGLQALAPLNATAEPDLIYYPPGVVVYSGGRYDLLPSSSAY
Method: as §1, §2

[8] = target: T1, GPCR135; conditions: transient expression in Cos-1 cells; cited from earlier work

In the case of “relaxin3: secreted protein consisting of relaxin3 polypeptide chains A and B linked by disulfide bridges; recombinant human, natural ligand of GPCR135”, the “stimulation of GTPγS binding” value [1] is reported as “potently stimulated”, the “forskalin-stimulated cAMP accumulation” value ([2]; cells expressing GPCR135) is reported as “inhibits” and the “intracellular concentration of cAMP” value ([2]; in the presence of GPCR135) is reported as “decreases”. The “Ca2+ mobilization” value [3] was “stimulates” and the “activation of LGR7” value [4] was “activates”.

In the case of `C=C[C@@]1(C)CC(=O)[C@]2(O)[C@@]3(C)[C@@H](O)CCC(C)(C)[C@@H]3[C@H](O)[C@H](OC(C)=O)[C@@]2(C)O1` [forskalin, reference compound], the “intracellular concentration of cAMP” value ([2]; in the absence of GPCR135) is reported as “increases” and the “intracellular concentration of cAMP” value ([2]; in the presence of GPCR135) is reported as “increases”.

With “^125I-relaxin3: human relaxin3 labeled with iodine-125, used as radioligand” the “specific binding to GPCR135” value [5] was “specifically binds”, the “specific binding to GPCR135” value [6] was “specifically binds” and the “specific binding to GPCR135” value [7] was “specifically binds”.

In the case of “angiotensin II (DRVYIHPF; Angiotensin-2; UniProt P01019 25-32, looked up)”, the “binding sites on GPCR135” value [8] is given as “did not produce any binding sites”.
